Earlier results on four substances are cited in publication PMC6502704.

Like-named read-outs stand apart in the source and are kept apart here.

The target of data set [1] is BMAL1 577-625 (Mus musculus) (UniProt Q9WTL8).
The target of data set [2] is BMAL1 490-625 (Mus musculus) (UniProt Q9WTL8).
Data set [3] has as its target BMAL1 577-625 (Mus musculus) (UniProt Q9WTL8). This is another data set of the same source.
Data set [4] has as its target BMAL1 TAD (Mus musculus) (UniProt Q9WTL8).
Data set [5] shares this target. The source holds these as a separate data set.

Broadly, the Kd is a measure of binding affinity in units of concentration. As for CRY1 CCT (from UniProt P97784), the Kd in data set [1] is 10 µM.
Consider CRY2 CCT (from UniProt Q9R194), for which the Kd in data set [2] and in data set [3] was 10 µM in each case.
As to CBP KIX (from UniProt P45481), the Kd in the data set with BMAL1 TAD (Mus musculus) [4] was 2 µM.
Consider CRY1 (from UniProt P97784), for which the dissociation constant Kd in the data set with BMAL1 TAD (Mus musculus) [5] was 10 µM.
